Assay results as given in patent publication US20100310561A1, “NATRIURETIC FUSION PROTEINS” (BOEHRINGER INGELHEIM INTERNATIONAL GMBH, priority 2007, published 2010).

B1: ANPXY-L6-Fc2AB (protein)
chain: SLRRSSCFGGRMDRIGAQSGLGCNSFRYGGSGGSGGSGGSGGSGGSGGCPPCPAPPVAGPSVFLFPPKPKDTLMISRTPEVTCVVVDVSHEDPEVQFNWYVDGVEVHNAKTKPREEQFNSTFRVVSVLTVVHQDWLNGKEYKCKVSNKGLPAPIEKTISKTKGQPREPQVYTLPPSREEMTKNQVSLTCLVKGFYPSDIAVEWESNGQPENNYKTTPPMLDSDGSFFLYSKLTVDKSRWQQGNVFSCSVMHEALHNHYTQKSLSLSPGK
modifications: Synthesized ANPxy-L6-Fc2ab
B2: ANPXY-L4-Fc2AB (protein)
chain: SLRRSSCFGGRMDRIGAQSGLGCNSFRYGGSGGSGGSGGCPPCPAPPVAGPSVFLFPPKPKDTLMISRTPEVTCVVVDVSHEDPEVQFNWYVDGVEVHNAKTKPREEQFNSTFRVVSVLTVVHQDWLNGKEYKCKVSNKGLPAPIEKTISKTKGQPREPQVYTLPPSREEMTKNQVSLTCLVKGFYPSDIAVEWESNGQPENNYKTTPPMLDSDGSFFLYSKLTVDKSRWQQGNVFSCSVMHEALHNHYTQKSLSLSPGK
modifications: Synthesized ANPxy-L4-Fc2ab (protein)

Assay: Single-dose rat PK study of recombinant ANP-Fc fusions, i.v. or s.c.
Assay type: in vivo
Conditions: 1 mg/kg, Sprague Dawley rats
Protocol: The pharamacokinetics of the recombinant ANP-Fc fusion candidates were assessed by running a single-dose rat PK study. Single bolus injections of ANP-Fc fusions at 1 mg/kg dose were given to Sprague Dawley rats via i.v. or s.c. injection. Vehicle control PBS injections were given to a control group of animals. […] Animals were sampled for 1 week with a contingency group going up to 3 weeks. After sampling the animals were quarantined and the plasma samples with EDTA and Aprotinin are assayed in a sandwich ELISA where the ANP is captured with a monoclonal antibody and detected with an anti-human Fc antibody. The ELISA has a sensitivity of 1 ng/mL and may be used to detect ANP-Fc fusion proteins in rat plasma. This rat PK data permits the comparison of the in vivo half-life of the ANP-Fc fusion proteins to that of the native ligand, hANP28.

Molecule	half-life (T½) (intravenous bolus) [h]	mean resonance time (MRT) (intravenous bolus) [h]	volume of distribution (Vss) (intravenous bolus) [L/kg]	area under the curve (AUC) (subcutaneous) [ng·h/mL]	half-life (T½) (subcutaneous) [h]	maximum serum concentration obtained (Cmax) (subcutaneous) [ng/mL]	percent bioavailability (% F) (subcutaneous) [%]
B1	11.7	3.08	0.76	2202	20.6	44	26.3
B2	16.8	3.91	0.61	2671	23.1	53.5	20.6
